Consider 44 variants from the Human Domainome abundance scans (Beltran et al. 2025).

± gives the uncertainty stated by the source.

B1: Ras GTPase-activating protein 1, residues 281 to 341; numbered along this chain, P20936 (parent)
chain: RRRVRAILPYTKVPDTDEISFLKGDMFIVHNELEDGWMWVTNLRTDEQGLIVEDLVEEVGR

In the series the parent is B1. Nature of the series: abundance fitness (aPCA) (normalised: wild type 0, dead -1); higher = more abundant; growth selection in yeast, the domain comes from the species named. As to conditions: Homo sapiens.
Regarding RRRVRAILPGTKVPDTDEISFLKGDMFIVHNELEDGWMWVTNLRTDEQGLIVEDLVEEVGR [Y10G], the abundance fitness is -0.84 ± 0.091.
For RRRVRAILPTTKVPDTDEISFLKGDMFIVHNELEDGWMWVTNLRTDEQGLIVEDLVEEVGR [Y10T] the value was -0.999 ± 0.098; for RRRVRANLPYTKVPDTDEISFLKGDMFIVHNELEDGWMWVTNLRTDEQGLIVEDLVEEVGR [I7N], -0.292 ± 0.032.
As for RRRVRASLPYTKVPDTDEISFLKGDMFIVHNELEDGWMWVTNLRTDEQGLIVEDLVEEVGR [I7S], the abundance fitness is -0.236 ± 0.027.
For RRRVRAILPYTKVPDTDEISFLKGDMFIVHNELEDGWMWVTNLRPDEQGLIVEDLVEEVGR [T45P] the value was -0.988 ± 0.084; for RRRVRAILPYTKVPDTDEISFLKEDMFIVHNELEDGWMWVTNLRTDEQGLIVEDLVEEVGR [G24E], -0.371 ± 0.052; for RRRVRAILPYTKVPDTDEISFLKGDMFIVTNELEDGWMWVTNLRTDEQGLIVEDLVEEVGR [H30T], -0.261 ± 0.037.
For RRRVRAILPYTKVPDTDEISFLKGDMFIVKNELEDGWMWVTNLRTDEQGLIVEDLVEEVGR [H30K] the value was -0.151 ± 0.065; for RRRVRAILPYTKVPDTDEISFLKGDMFIVHNELEDGWMWVLNLRTDEQGLIVEDLVEEVGR [T41L], -0.357 ± 0.033; for RRRVRAILPYTKVPDTDEISFLKGDMFIVHNELEDGWMWVDNLRTDEQGLIVEDLVEEVGR [T41D], -0.862 ± 0.053.
RRRVRNILPYTKVPDTDEISFLKGDMFIVHNELEDGWMWVTNLRTDEQGLIVEDLVEEVGR [A6N]: the abundance fitness is -0.908 ± 0.032.
Take RRRVRAILPYTKVPDTDEISFLKGDMFIVHNELEDGWMWVTNLRTDEQGLHVEDLVEEVGR [I51H]: the abundance fitness is -0.857 ± 0.054.
For RRRVRAILPYTKVPDTDEISFLKGDMFIVHNELEDGWMWVTNLRTDEQGLAVEDLVEEVGR [I51A] the value was -0.481 ± 0.034; for RRRVRAILPYTKVPDTDEISFLKGDMFIVHNELYDGWMWVTNLRTDEQGLIVEDLVEEVGR [E34Y], -0.188 ± 0.034.
For RRRVRAILPYTKVPDTDEISFLKGDMFIVHNELKDGWMWVTNLRTDEQGLIVEDLVEEVGR [E34K] the value was -0.026 ± 0.064; for RRRVRAILPYTKVPDTDEISFLKGDMFIVHNELEDGWMKVTNLRTDEQGLIVEDLVEEVGR [W39K], -0.118 ± 0.037; for RRRVRAILPYTKVPDTDEISFLKGDMFIVHNELEDGWMVVTNLRTDEQGLIVEDLVEEVGR [W39V], -0.195 ± 0.021.
For RRRVRAILPYTKVPDTDEISHLKGDMFIVHNELEDGWMWVTNLRTDEQGLIVEDLVEEVGR [F21H] the value was -0.84 ± 0.036; for RRRVRAILPYTKVPDTDEISFLKGDMFIVHNELEDGWMWVTNLRTDEQGLIVEDLVEEVGM [R61M], -0.031 ± 0.065; for RRRVRAILPYTKVPDHDEISFLKGDMFIVHNELEDGWMWVTNLRTDEQGLIVEDLVEEVGR [T16H], -0.784 ± 0.047.
For RRRGRAILPYTKVPDTDEISFLKGDMFIVHNELEDGWMWVTNLRTDEQGLIVEDLVEEVGR [V4G], the abundance fitness was -0.901 ± 0.027.
For RRRVRAILPYTKVPDTDEISFLKGDMFIVHNELEDGWMWVTNLRTDEQGLIVEPLVEEVGR [D54P] the value was -0.175 ± 0.049; for RRRVRAILPYTKVPDTDEISFLKGDMFIVHNGLEDGWMWVTNLRTDEQGLIVEDLVEEVGR [E32G], -0.299 ± 0.029.
The result for RRRVRAILPYTKVPDTDEISFLKGDMFIVHNNLEDGWMWVTNLRTDEQGLIVEDLVEEVGR [E32N] reads -0.07 ± 0.03; that for RRRVRAILPYTKVPDTDEISFLKGHMFIVHNELEDGWMWVTNLRTDEQGLIVEDLVEEVGR [D25H], -0.895 ± 0.059; that for RRRVRAILPYTKVPDTDEISFLKGCMFIVHNELEDGWMWVTNLRTDEQGLIVEDLVEEVGR [D25C], -0.864 ± 0.047.
For RRRVRAILPYTKVPDTDELSFLKGDMFIVHNELEDGWMWVTNLRTDEQGLIVEDLVEEVGR [I19L] the value was -0.004 ± 0.03.
Regarding RRRVRAILPYTKVPDTDEFSFLKGDMFIVHNELEDGWMWVTNLRTDEQGLIVEDLVEEVGR [I19F], the abundance fitness is -0.943 ± 0.061.
For RRRVRAILPYTKVPDTDEISFLKGDMFIVHNELEDGWMWVTNLRTDEQGLIVEDQVEEVGR [L55Q] the value was -0.033 ± 0.059.
The result for RRRVRAILPYTKVPDTDEISFLKGDMFIVHNELEDGWMWVTNLRTDEQGLIVEDAVEEVGR [L55A] reads 0.032 ± 0.032.
For RRRVRAILPYTKVPDTDEISFLKGDMFIVHNELEDGWMWVTNLRTDEQGLIVEDEVEEVGR [L55E] the value was -0.765 ± 0.12; for RRRVRAILPYTKVPDTDEISFLKGDMFIVHNELEDGWMWVTNLRTDEQGLIVEDLKEEVGR [V56K], -0.741 ± 0.1; for RRRVRAILPYTKVPDTDEISFLKGDMFIVHNELEDGWMWVTNLRTDEQGLIVEDLAEEVGR [V56A], -0.421 ± 0.035.
Regarding RRRVRAILPYTKVPDTDEISFLKGDMFIVHNELEDGWMWVTNLRTDEQGLIVEDLIEEVGR [V56I], the abundance fitness is -0.031 ± 0.028.
For RRRVRAILPYTKVPDTDEISFLKGDMFIVHNELEDGYMWVTNLRTDEQGLIVEDLVEEVGR [W37Y] the value was 0.024 ± 0.021.
The result for RRRVRAILPYTKVPDTDEISFLKGDMFIVHNELEDGAMWVTNLRTDEQGLIVEDLVEEVGR [W37A] reads -0.014 ± 0.021.
RRRVRAILPYTKVPDTDEISFLKGDMFIVHNELEDGWMWVTNLRTDEQGLIVEDLVEEWGR [V59W]: the abundance fitness is -0.137 ± 0.052.
On to RRRVRAILPYTKVPDTDEISFLKGDMFIYHNELEDGWMWVTNLRTDEQGLIVEDLVEEVGR [V29Y], for which the abundance fitness was -0.879 ± 0.049.
For RRRVRAILPYTKVPDTDEISFLKGDMFICHNELEDGWMWVTNLRTDEQGLIVEDLVEEVGR [V29C] the value was -0.363 ± 0.029; for RRRVRAILPYTKVPDTDEISFLKGDMFINHNELEDGWMWVTNLRTDEQGLIVEDLVEEVGR [V29N], -0.823 ± 0.049; for RRRVRAIEPYTKVPDTDEISFLKGDMFIVHNELEDGWMWVTNLRTDEQGLIVEDLVEEVGR [L8E], -0.067 ± 0.062.
For RRRVRAILPYTKVPDTDEIPFLKGDMFIVHNELEDGWMWVTNLRTDEQGLIVEDLVEEVGR [S20P] the value was -0.639 ± 0.077; for RRRVRAILPYTKVPDTDEIQFLKGDMFIVHNELEDGWMWVTNLRTDEQGLIVEDLVEEVGR [S20Q], -0.828 ± 0.13.
As to RTRVRAILPYTKVPDTDEISFLKGDMFIVHNELEDGWMWVTNLRTDEQGLIVEDLVEEVGR [R2T], the abundance fitness was -0.128 ± 0.032.
